Target: Canine IL-31RA ECD-10His (canine)
Assay: ELISA, IL-31RA coated at 1 ug/mL, biotinylated IL-31 titrated, HRP-streptavidin

Canine IL-31RA ECD-10His (canine), sequence (chain, as listed by the source limits assumed): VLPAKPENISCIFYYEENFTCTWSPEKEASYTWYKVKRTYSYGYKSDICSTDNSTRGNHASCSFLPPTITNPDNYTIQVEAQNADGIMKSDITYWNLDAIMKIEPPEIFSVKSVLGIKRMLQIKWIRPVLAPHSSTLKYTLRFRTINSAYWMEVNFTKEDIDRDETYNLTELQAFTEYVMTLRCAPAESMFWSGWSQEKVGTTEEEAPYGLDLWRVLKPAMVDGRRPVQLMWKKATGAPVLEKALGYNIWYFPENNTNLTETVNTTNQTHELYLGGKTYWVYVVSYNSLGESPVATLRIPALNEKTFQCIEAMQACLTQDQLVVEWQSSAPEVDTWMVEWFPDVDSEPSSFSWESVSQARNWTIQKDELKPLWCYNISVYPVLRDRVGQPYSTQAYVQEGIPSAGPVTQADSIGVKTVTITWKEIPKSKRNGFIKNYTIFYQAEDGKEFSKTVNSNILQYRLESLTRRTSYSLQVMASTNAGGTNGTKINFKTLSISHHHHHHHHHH

canine IL-31 (ligand) gave an EC50 of 0.55 ng/mL.

Reference: US20250340653A1
